Experimental data reported in patent US20220348686A1 (Memorial Sloan Kettering, published 2022).
Positions count from the first letter of the chain named. Names and notes keep the numbering of the source. Values belong to the binder of their own block, whether it stands above or below them.

Legend:
[1] = target: T1, Human STEAP1 (human, UniProt Q9UHE8 1-339); assay: flow cytometry on TC32 cells after repeated washes in PBS with 2 mM EDTA
T1 construct: Endogenous on Ewing's sarcoma cell lines (TC32 and others) and prostate cancer cell lines; as STP1h transfected into HEK293 cells with a lentiviral vector (GFP part of the transgene); also called STP1h
Experimental: Following binding of the primary antibody, cells were washed in PBS with 2 mM EDTA from 1 to 10 times. After each wash cells were stained with the secondary PE-conjugated goat anti-human IgG antibody and washed once with PBS for flow cytometry. Mean fluorescence intensity (MFI) was normalized to time 1 and depicted in FIG. 4B. While chimeric antibody dropped to below 50% after first wash, clones L1+H1, L1+H2, L1+H5 and L2+H2 remained above 50% through wash #8 and therefore scored as slow koff.
After initial staining (FIG. 4A), ten different clones, including the chimeric BsAb clone, were chosen for further study. To assess binding of these ten clones to TC32 cells, following incubation of the BsAbs, the cells were subjected to ten washes with PBS. An aliquot of the binding reaction after each wash was stained with a fluorochrome labelled anti-human secondary antibody. The extent of binding of the anti-STEAP1 BsAbs to TC32 cells was measured using flow cytometry.

[2] = target: T1, Human STEAP1; assay: flow cytometry staining of TC32 cells with different doses

T1 sequence (Q9UHE8 whole entry): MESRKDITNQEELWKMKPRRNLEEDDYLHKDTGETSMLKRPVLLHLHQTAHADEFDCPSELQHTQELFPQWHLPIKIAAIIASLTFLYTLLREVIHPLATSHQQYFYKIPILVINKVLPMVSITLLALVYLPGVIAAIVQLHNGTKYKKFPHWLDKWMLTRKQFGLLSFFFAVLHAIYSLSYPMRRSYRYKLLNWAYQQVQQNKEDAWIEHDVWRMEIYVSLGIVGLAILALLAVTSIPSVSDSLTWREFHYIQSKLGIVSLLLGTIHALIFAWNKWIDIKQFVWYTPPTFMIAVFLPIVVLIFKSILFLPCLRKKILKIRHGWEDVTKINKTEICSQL

B1: BC259 (VH-1+VL-1 BsAb variant) (bispecific antibody, V domains shown)
VH: QVQVQESGPGLVKPSQTLSLTCTVTGYSITSDYAWNWIRQPPGKGLEWMGYISNSGSTSYNPSLKSRITISRDTSKNQFSLKLSSVTAADTAVYYCARERNYDYDDYYYAMDYWGQGTTLTVSA
VL: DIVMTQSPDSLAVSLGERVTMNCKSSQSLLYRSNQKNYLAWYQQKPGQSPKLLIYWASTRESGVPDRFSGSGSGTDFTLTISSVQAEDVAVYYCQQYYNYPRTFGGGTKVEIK
notes: One of the 24 humanized X120 versions; light chain extended by (G4S)3 linker and huOKT3 anti-CD3 scFv); also called L1+H1
Mean fluorescence intensity (MFI) normalized to time 1, through wash #8 [1]: > 50%

B4: BC260 (VH-2+VL-1 BsAb variant) (bispecific antibody, V domains shown)
VH: B1 VH with Q1D
VL: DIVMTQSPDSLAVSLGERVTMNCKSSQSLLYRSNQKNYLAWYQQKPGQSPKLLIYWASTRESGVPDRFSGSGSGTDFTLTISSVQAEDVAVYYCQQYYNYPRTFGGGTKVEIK
notes: One of the 24 humanized X120 versions; light chain extended by (G4S)3 linker and huOKT3 anti-CD3 scFv); also called L1+H2
Mean fluorescence intensity (MFI) normalized to time 1, through wash #8 [1]: > 50%

Other lines, results leading:

binding result [2]: binds
B2: humanized X120 clone L4+H2 (bispecific antibody, IgG1, V domains shown)
VH: B1 VH with Q1D
VL: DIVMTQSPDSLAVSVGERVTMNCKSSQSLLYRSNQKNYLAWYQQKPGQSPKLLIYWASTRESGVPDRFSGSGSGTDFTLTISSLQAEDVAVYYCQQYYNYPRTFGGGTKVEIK
notes: One of the 24 humanized X120 versions; light chain with (G4S)3 linker and huOKT3 scFv)

binding result [2]: binds
B3: humanized X120 clone L4+H1 (bispecific antibody, IgG1, V domains shown)
VH: B1 VH
VL: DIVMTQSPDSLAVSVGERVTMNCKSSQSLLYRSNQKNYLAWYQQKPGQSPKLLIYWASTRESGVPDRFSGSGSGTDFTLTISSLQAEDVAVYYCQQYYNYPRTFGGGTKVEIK
notes: as for B2

binding result [2]: binds
B5: humanized X120 clone L2+H1 (bispecific antibody, IgG1, V domains shown)
VH: B1 VH
VL: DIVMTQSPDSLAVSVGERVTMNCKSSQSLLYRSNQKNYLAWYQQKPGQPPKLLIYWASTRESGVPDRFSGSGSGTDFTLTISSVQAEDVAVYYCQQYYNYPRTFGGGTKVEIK
notes: as for B2
